{"source": "patent US20060165706A1", "about": "(GENETICS INSTITUTE, published 2006)", "key": {"human CTLA4-Ig [1]": {"biological_target": "T1, human CTLA4-Ig (human, UniProt P16410 38-161)", "T1 construct": "also called rhCTLA4IgG1Fc; not shown: immunoglobulin Fc part of the fusion; named IgG1Fc in rhCTLA4IgG1Fc and detected with anti-human Fc", "T1 sequence (P16410 other isoform, or with tags, fused parts or gaps limits assumed)": "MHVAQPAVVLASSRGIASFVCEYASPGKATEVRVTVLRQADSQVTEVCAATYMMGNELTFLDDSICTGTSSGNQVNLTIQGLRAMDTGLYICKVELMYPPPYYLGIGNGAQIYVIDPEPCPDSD", "assay": "calculated; method and form of CTLA4 not stated (Example 8, competition assays); humanized, IgG1 isotype"}, "human CTLA4-Ig [2]": {"biological_target": "T1, human CTLA4-Ig", "assay": "competition ELISA on plate-coated human CTLA4-Ig (10 ug/ml); cold competitor titrated against biotinylated murine CTLA4-26B; streptavidin-peroxidase, ABTS, O.D. 415 nm", "procedure": "(§1) Plates were coated with human CTLA4-Ig (10 ug/ml) overnight, washed the next day and blocked with Superblock (Pierce) for 15 min at room temperature. Plates were washed three times with 1×PBS/0.1% Tween 20 and three times with 1×PBS.\n(§2) 100 ul of antibody mixtures was transferred to human CTLA4-Ig coated ELISA plate and rocked for 2 hours at room temperature. Plates were washed as described above and a secondary reagent (streptavidin peroxidase conjugate at 1:1000 dilution) in PBT buffer (1×PBS, 1% BSA, 0.1% Tween 20 was added. Plates were incubated for 1 hr at RT with shaking. Plates were washed as described above and developed for 10 minutes at room temperature with ABTS+H2O2 (100 ul/well) and the reaction was stopped with 2% oxalic acid (100 ul/well)."}, "human CTLA4-Ig [3]": {"biological_target": "T1, human CTLA4-Ig", "assay": "competition ELISA on coated human CTLA4-Ig; reference murine CTLA4-26B", "procedure": "as §1, §2"}, "[4]": {"biological_target": "CTLA4 on CTLA4-expressing CHO cells (human, UniProt P16410 36-223)", "sequence (P16410 36-223 T147A limits assumed)": "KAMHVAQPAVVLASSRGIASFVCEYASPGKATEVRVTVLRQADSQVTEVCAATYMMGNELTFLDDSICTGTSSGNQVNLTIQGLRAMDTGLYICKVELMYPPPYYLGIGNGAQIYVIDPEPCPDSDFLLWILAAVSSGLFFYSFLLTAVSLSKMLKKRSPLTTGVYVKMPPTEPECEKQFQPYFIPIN", "assay": "FACS competition on CTLA4-expressing CHO cells; competitor 125 ng FITC-labeled murine anti-CTLA4; unlabeled antibody 2000 ng to 100 ng", "procedure": "The starting concentration of the unlabeled competitor was 2000 ng and was diluted 2-fold serially to 100 ng."}, "human CTLA4-Ig [5]": {"biological_target": "T1, human CTLA4-Ig", "assay": "calculated; method and form of CTLA4 not stated (Example 8, competition assays); humanized, IgG4 isotype"}, "human CTLA4-Ig [6]": {"biological_target": "T1, human CTLA4-Ig", "assay": "calculated; method and form of CTLA4 not stated (Example 8, competition assays); humanized, IgG2m3 isotype"}, "human CTLA4-Ig [7]": {"biological_target": "T1, human CTLA4-Ig", "assay": "calculated; method and form of CTLA4 not stated (Example 8, competition assays); murine antibody"}, "human CTLA4-Ig [8]": {"biological_target": "T1, human CTLA4-Ig", "assay": "ELISA on plate-coated human CTLA4-Ig (10 ug/ml); serial dilutions of antibody, AP-goat anti-mouse, ABTS, OD 405 nm", "procedure": "ELISA plates were incubated with 10 ug/ml human CTLA4-Ig overnight. Plates were washed with PBS/1% BSA and incubated with serial dilutions of primary antibody for 2 hrs at room temperature (RT). After washing, saturating concentrations of AP-conjugated goat anti-mouse antibody were added, and incubated for 1 hr at RT. Unbound goat antibodies were washed using PBS/1% BSA. The assay was developed using ABTS."}, "human CTLA4-Ig [9]": {"biological_target": "T1, human CTLA4-Ig", "assay": "inhibition ELISA on plate-coated human CTLA4-Ig (10 ug/ml); antibody titrated, then biotin-CD86-Ig at 0.66 ug/ml as the blocked ligand; neutravidin-AP, ABTS", "procedure": "ELISA were performed as described above with modifications. […] After washing, saturating concentrations of neutravidin-AP were added, and incubated for 1 hr at RT. Unbound neutravidin-AP was washed using PBS/1% BSA. The assay was developed using ABTS."}, "E46 [10]": {"biological_target": "T2, E46", "T2 construct": "one of 11 alanine mutants made by site-directed mutagenesis, used as CHO supernatant; also called CTLA4 point mutant E46; CTLA4-Ig E46A; not shown: human Ig Fc portion (with hinge or linker) of the CTLA4-Ig fusion", "assay": "sandwich ELISA: antibody coated at 10 ug/ml, CHO supernatant with CTLA4-Ig mutant, AP-goat anti-human Fc"}, "E46 [11]": {"biological_target": "T2, E46", "assay": "sandwich ELISA: antibody coated at 10 ug/ml, CHO supernatant with about 0.5 ug/ml CTLA4-Ig mutant, AP-goat anti-human Fc; blanks on the sheet: Mock 0.174, DME 0.183", "procedure": "Mutant proteins were transiently expressed on CHO cells and supernatants harvested at 48 hrs. Supernatants containing CTLA4 mutant molecules were quantitated and standardized by ELISA. […] After incubation for 2 hrs at RT, plates were washed and incubated for 1 hr with AP-conjugated goat anti-human Fc specific IgG. The assay was developed as described above."}, "S64": {"biological_target": "T3, S64", "T3 construct": "one of 11 alanine mutants made by site-directed mutagenesis, used as CHO supernatant; also called CTLA4 point mutant S64; CTLA4-Ig S64A; not shown: human Ig Fc portion (with hinge or linker) of the CTLA4-Ig fusion", "assay": "sandwich ELISA: antibody coated at 10 ug/ml, CHO supernatant with about 0.5 ug/ml CTLA4-Ig mutant, AP-goat anti-human Fc; blanks on the sheet: Mock 0.174, DME 0.183"}, "T45": {"biological_target": "T4, T45", "T4 construct": "one of 11 alanine mutants made by site-directed mutagenesis, used as CHO supernatant; also called CTLA4 point mutant T45; CTLA4-Ig T45A; not shown: the human Ig (Fc) part of the CTLA4-Ig fusion and its junction", "assay": "sandwich ELISA: antibody coated at 10 ug/ml, CHO supernatant with about 0.5 ug/ml CTLA4-Ig mutant, AP-goat anti-human Fc; blanks on the sheet: Mock 0.174, DME 0.183"}, "T67": {"biological_target": "T5, T67", "T5 construct": "one of 11 alanine mutants made by site-directed mutagenesis, used as CHO supernatant; also called CTLA4 point mutant T67; CTLA4-Ig T67A; not shown: human Ig Fc portion (with hinge or linker) of the CTLA4-Ig fusion", "assay": "sandwich ELISA: antibody coated at 10 ug/ml, CHO supernatant with about 0.5 ug/ml CTLA4-Ig mutant, AP-goat anti-human Fc; blanks on the sheet: Mock 0.174, DME 0.183"}, "R85": {"biological_target": "T6, R85", "T6 construct": "one of 11 alanine mutants made by site-directed mutagenesis, used as CHO supernatant; also called CTLA4 point mutant R85; CTLA4-Ig R85A; not shown: human Ig Fc portion (with hinge or linker) of the CTLA4-Ig fusion", "assay": "sandwich ELISA: antibody coated at 10 ug/ml, CHO supernatant with about 0.5 ug/ml CTLA4-Ig mutant, AP-goat anti-human Fc; blanks on the sheet: Mock 0.174, DME 0.183"}, "I65": {"biological_target": "T7, I65", "T7 construct": "one of 11 alanine mutants made by site-directed mutagenesis, used as CHO supernatant; also called CTLA4 point mutant I65; CTLA4-Ig I65A; not shown: the human Ig (Fc) part of the CTLA4-Ig fusion and its junction", "assay": "sandwich ELISA: antibody coated at 10 ug/ml, CHO supernatant with about 0.5 ug/ml CTLA4-Ig mutant, AP-goat anti-human Fc; blanks on the sheet: Mock 0.174, DME 0.183"}, "R38": {"biological_target": "T8, R38", "T8 construct": "one of 11 alanine mutants made by site-directed mutagenesis, used as CHO supernatant; also called CTLA4 point mutant R38; CTLA4-Ig R38A; not shown: human Ig Fc portion (with hinge or linker) of the CTLA4-Ig fusion", "assay": "sandwich ELISA: antibody coated at 10 ug/ml, CHO supernatant with about 0.5 ug/ml CTLA4-Ig mutant, AP-goat anti-human Fc; blanks on the sheet: Mock 0.174, DME 0.183"}, "L61": {"biological_target": "T9, L61", "T9 construct": "one of 11 alanine mutants made by site-directed mutagenesis, used as CHO supernatant; also called CTLA4 point mutant L61; CTLA4-Ig L61A; not shown: the human Ig (Fc) part of the CTLA4-Ig fusion and its junction", "assay": "sandwich ELISA: antibody coated at 10 ug/ml, CHO supernatant with about 0.5 ug/ml CTLA4-Ig mutant, AP-goat anti-human Fc; blanks on the sheet: Mock 0.174, DME 0.183"}, "Q82": {"biological_target": "T10, Q82", "T10 construct": "one of 11 alanine mutants made by site-directed mutagenesis, used as CHO supernatant; also called CTLA4 point mutant Q82; CTLA4-Ig Q82A; not shown: human Ig Fc portion (with hinge or linker) of the CTLA4-Ig fusion", "assay": "sandwich ELISA: antibody coated at 10 ug/ml, CHO supernatant with about 0.5 ug/ml CTLA4-Ig mutant, AP-goat anti-human Fc; blanks on the sheet: Mock 0.174, DME 0.183"}, "D63": {"biological_target": "T11, D63", "T11 construct": "one of 11 alanine mutants made by site-directed mutagenesis, used as CHO supernatant; also called CTLA4 point mutant D63; CTLA4-Ig D63A; not shown: human Ig Fc portion (with hinge or linker) of the CTLA4-Ig fusion", "assay": "sandwich ELISA: antibody coated at 10 ug/ml, CHO supernatant with about 0.5 ug/ml CTLA4-Ig mutant, AP-goat anti-human Fc; blanks on the sheet: Mock 0.174, DME 0.183"}, "D62": {"biological_target": "T12, D62", "T12 construct": "one of 11 alanine mutants made by site-directed mutagenesis, used as CHO supernatant; also called CTLA4 point mutant D62; CTLA4-Ig D62A; not shown: human Ig Fc portion (with hinge or linker) of the CTLA4-Ig fusion", "assay": "sandwich ELISA: antibody coated at 10 ug/ml, CHO supernatant with about 0.5 ug/ml CTLA4-Ig mutant, AP-goat anti-human Fc; blanks on the sheet: Mock 0.174, DME 0.183"}}}
{"binder": "humanized anti-CTLA4 antibody 26, IgG1 isotype (antibody, V domains shown, Human IgG1 heavy constant region (pVgamma1 vector) and human kappa constant region (pVkappa vector); also called hCTLA4-26B IgG1; humanized anti-CTLA4 IgG1) VH: QVQLQESGPGLVKPSQTLSLTCTVSGFSLTSYGVYWVRQPPGKGLEWLGVIWAGGTTNYNSALMSRLTISKDTSKNQVSLKLSSVTAADTAVYYCARGPPHAMMKRGYAMDYWGQGTLVTVSS VL: DIQMTQSPSSLSASVGDRVTITCSATSSITYMSWYQQKPGKAPKLLIYDTSNLASGVPSRFSGSGSGTDYTLTISSLQPEDFATYYCQQWSSYPLTFGGGTKVEIK", "values": [{"measurement": "Kd", "setting": "human CTLA4-Ig [1]", "value": "~2", "unit": "nM"}, {"measurement": "IC50 (read off the curve)", "setting": "human CTLA4-Ig [2]", "value": "~3", "unit": "µg/mL"}, {"measurement": "fold difference in affinity against the murine antibody", "setting": "human CTLA4-Ig [3]", "value": "≤ 10", "unit": "fold"}, {"measurement": "fold difference in binding affinity against the murine antibody", "setting": "[4]", "value": "≤ 3", "unit": "fold"}]}
{"binder": "humanized anti-CTLA4 antibody 26, IgG4 isotype (antibody, V domains shown, Human IgG4 heavy constant region (pVgamma4 vector) and human kappa constant region; also called hCTLA4-26B IgG4; PVkLC+PVg4HC) VH: QVQLQESGPGLVKPSQTLSLTCTVSGFSLTSYGVYWVRQPPGKGLEWLGVIWAGGTTNYNSALMSRLTISKDTSKNQVSLKLSSVTAADTAVYYCARGPPHAMMKRGYAMDYWGQGTLVTVSS VL: DIQMTQSPSSLSASVGDRVTITCSATSSITYMSWYQQKPGKAPKLLIYDTSNLASGVPSRFSGSGSGTDYTLTISSLQPEDFATYYCQQWSSYPLTFGGGTKVEIK", "values": [{"measurement": "Kd", "setting": "human CTLA4-Ig [5]", "value": "~1.1", "unit": "nM"}, {"measurement": "IC50 (read off the curve)", "setting": "human CTLA4-Ig [2]", "value": "~3", "unit": "µg/mL"}, {"measurement": "fold difference in affinity against the murine antibody", "setting": "human CTLA4-Ig [3]", "value": "≤ 10", "unit": "fold"}]}
{"binder": "humanized anti-CTLA4 antibody 26, IgG2m3 isotype (antibody, V domains shown, Human IgG2m3 (mutated IgG2) heavy constant region (pVgamma2m3 vector) and human kappa constant region; also called hCTLA4-26B IgG2m3; IgG2 m3 (2 mutated 3)) VH: QVQLQESGPGLVKPSQTLSLTCTVSGFSLTSYGVYWVRQPPGKGLEWLGVIWAGGTTNYNSALMSRLTISKDTSKNQVSLKLSSVTAADTAVYYCARGPPHAMMKRGYAMDYWGQGTLVTVSS VL: DIQMTQSPSSLSASVGDRVTITCSATSSITYMSWYQQKPGKAPKLLIYDTSNLASGVPSRFSGSGSGTDYTLTISSLQPEDFATYYCQQWSSYPLTFGGGTKVEIK", "values": [{"measurement": "Kd", "setting": "human CTLA4-Ig [6]", "value": "~1.2", "unit": "nM"}, {"measurement": "IC50 (read off the curve)", "setting": "human CTLA4-Ig [2]", "value": "~3", "unit": "µg/mL"}, {"measurement": "fold difference in affinity against the murine antibody", "setting": "human CTLA4-Ig [3]", "value": "≤ 10", "unit": "fold"}]}
{"binder": "murine anti-human CTLA4 monoclonal antibody number 26 (antibody, V domains shown, Mouse IgG1; also called antibody 26; antibody 26B) VH: QVQLKESGPGLVAPSQSLSITCTVSGFSLTSYGVYWVRQPPGKGLEWLGVIWAGGTTNYNSALMSRLSISKDNSKSQVFLKMSSLQTDDTAMYYCARGPPHAMMKRGYAMDYWGQGTSVIVSS VL: QNVLTQSPAIMPASPGEKVTMTCSATSSITYMSWYQQKSGSSPRLLIYDTSNLASGVPVRFSGSGSGTSYSLTISRMEAEDAATYYCQQWSSYPLTFGAGTKLELK", "values": [{"measurement": "Kd", "setting": "human CTLA4-Ig [7]", "value": "~1.7", "unit": "nM"}, {"measurement": "EC50 (read off the curve)", "setting": "human CTLA4-Ig [8]", "value": "~0.05", "unit": "µg/mL"}, {"measurement": "IC50 (read off the curve)", "setting": "human CTLA4-Ig [2]", "value": "~3", "unit": "µg/mL"}, {"measurement": "IC50 (read off the curve)", "setting": "human CTLA4-Ig [9]", "value": "~0.6", "unit": "µg/mL"}, {"measurement": "binding result", "setting": "E46 [10]", "value": "no binding"}, {"measurement": "O.D. 450 nm", "setting": "E46 [11]", "value": 0.16}, {"measurement": "O.D. 450 nm", "setting": "S64", "value": 1.1}, {"measurement": "O.D. 450 nm", "setting": "T45", "value": 0.948}, {"measurement": "O.D. 450 nm", "setting": "T67", "value": 0.944}, {"measurement": "O.D. 450 nm", "setting": "R85", "value": 0.976}, {"measurement": "O.D. 450 nm", "setting": "I65", "value": 1.17}, {"measurement": "O.D. 450 nm", "setting": "R38", "value": 0.636}, {"measurement": "O.D. 450 nm", "setting": "L61", "value": 1.19}, {"measurement": "O.D. 450 nm", "setting": "Q82", "value": 1.07}, {"measurement": "O.D. 450 nm", "setting": "D63", "value": 0.979}, {"measurement": "O.D. 450 nm", "setting": "D62", "value": 0.974}]}
